# From patent publication US7193044B1, “Compounds and methods for regulating apoptosis, and methods of making and screening for compounds that regulate apoptosis” (Immunogen, Inc., priority 2000, dated 2007)
# “Also recorded” adds a separate entry of the source.
# B1: BAD S155A: mutant of shorter murine BAD, serine corresponding to Ser155 substituted with alanine; HA- or GST-tagged (protein)
# chain: MFQIPEFEPSEQEDASATDRGLGPSLTEDQPGPYLAPGLLGSNIHQQGRAATNSHHGGAGAMETRSRHSSYPAGTEEDEGMEEELSPFRGRSRSAPPNLWAAQRYGRELRRMADEFEGSFKGLPRPKSAGTATQMRQSAGWTRIIQSWWDRNLGKGGSTPSQ
# modifications: left off: small tags and cut ends
# notes: mutant of shorter murine BAD, serine corresponding to Ser155 substituted with alanine; HA- or GST-tagged
# Experiments:
# [1] = tested on: HeLa cells; assay: Beta-gal ELISA apoptosis assay in transfected HeLa cells; assay type: cell-based, human; conditions: HeLa cells, 24 hours post-transfection
# Description: Because BAD Ser155 phosphorylation, like Ser136 phosphorylation, prevents BAD from binding to Bcl-XL (FIG. 1), it was possible that by analogy, Ser155 dephosphorylation promotes cell death. To test this idea, HeLa cells were co-transfected with BAD or various BAD serine mutants and a β-gal reporter plasmid. Twenty-four hours post-transfection, cell viability was analyzed by β-gal ELISA.
# To test this idea, HeLa cells were again co-transfected with BAD or various BAD serine mutants and a β-gal reporter plasmid. Forskolin was then added to half of the cultures while the other half was left untreated. Beta-gal ELISAs were performed 24 hours post transfection. […] Thus, phosphorylation of Ser155 rescues cells from BAD-induced apoptosis, while substitution of Ser155 with a nonphosphorylatable residue results in increased cell death and the failure of cells to be protected from induced PKA activity.
# Beta-gal ELISA assays were performed using the β-gal ELISA system from Boehringer Mannheim, according to manufacture's instructions. Cells were transfected with BAD (or BAD mutant) and β-gal in a ratio of 5:1. The transfected cells were trypsinized and distributed into 96-well tissue culture plates. Twenty-four hours after transfection, cell extracts were obtained by lysing the cells in lysis buffer. Cell extracts (200 μl) were then added to anti-β-gal-coated microtiter plates (MTP). The MTPs were foil-covered and incubated for one hour at 37° C. Solutions were then decanted and the MTPs were washed, followed by the addition of 200 μl of anti-β-gal-DIG working solution, and incubation for an additional hour as described above. Solutions were again decanted, the MTPs washed and 200 μl of DIG-POD working solution were added. The MTPs were incubated for another hour at 37° C., the solution decanted, and the wells washed. 200 μl of substrate with enhancer were added to each well and incubated at room temperature until color development. The β-gal activity was measured by the absorbance of the sample at […]. Data were based on triplicate wells with standard deviations calculated.
# [2] = tested on: BAD Ser155 phosphorylation in HeLa cells; assay: BAD phosphorylation in HeLa cells (western blot band-shift / anti-phospho-Ser155 antibody); assay type: cell-based, human
# Description: A mammalian expression vector encoding mutant HA-BAD S155A, derived from the shorter murine BAD of SEQ ID NO:3, was constructed. HA-BAD S155A has an amino acid sequence wherein the serine at a position corresponding to Ser155 is substituted with alanine. A western blot was performed on WCL prepared from cells expressing the shorter murine BAD (SEQ ID NO:3), HA-BAD S112A, HA-BAD S136A, or HA-BAD S155A, and probed with anti-HA antibody.
# A western blot analysis, probed with anti-HA antibody, was performed on lysates produced from the Forskolin treated and untreated (control) cells to determine whether Forskolin could induce the phosphorylation BAD or mutant BAD.
# HeLa cells transiently expressing HA-BAD, HA-BAD S155A, HA-BAD S112A/S136A, or HA-BAD S112A/S136A/S155A were treated with Forskolin or a buffer control.
# The HA-BAD S112A/S136A double mutant was transiently expressed in HeLa cells, and transfected cell cultures were treated with each of the GPCR ligands, individually and as a group. A western blot analysis, probed with anti-HA antibody, was performed on lysates produced from the treated and untreated (negative control) cells. […] Forskolin (FK) and no treatment (−) were positive and negative controls, respectively (FIG. 6(a), […], respectively).
# Non-transfected HeLa cells were treated with Forskolin or L-epinephrine, followed by western blot analysis of cell lysates using anti-BAD antibodies.
# Transformants were treated with L-epinephrine, then lysed and subjected to anti-HA western blot analysis.
# To further test whether phosphorylation of Ser155 is dependent on the PI 3-kinase/Akt pathway, HeLa cells were transfected with the mutant HA-BAD S155A and pretreated with Wortmannin, an inhibitor of PI 3-kinase. These cells were then stimulated with epidermal growth factor (EGF), lysed and analyzed by western blot analysis.
# For immunoprecipitation of all HA-BAD species, 1 μg of the anti-HA antibody was added to the cell lysates, and incubated at 4° C. for one hour. Protein G agarose (Pierce) was then added (50 μl/fraction of 50% slurry) and followed by a one hour incubation at 4° C. Beads were washed with RIPA buffer, boiled in loading buffer (2% SDS, 10% glycerol, 5% β-ME, 60 mM Tris, pH 6.8, 0.002% Bromophenol Blue) and loaded onto polyacrylamide gels. After electrophoresis, proteins were transferred to nitrocellulose membranes, and blots blocked in western wash buffer (40 mM Tris, pH 8.0, 150 mM NaCl, 0.2% NP-40) with 5% BSA for one hour at room temperature. Blots were incubated with primary antibody diluted in western wash buffer with 3% BSA at room temperature for 1–2 hours, washed with western wash buffer and incubated with secondary HRP-coupled antibody diluted in western wash buffer with 1.5% BSA, and washed extensively. Polypeptides were detected with the ECL chemiluminescence according to the manufacturers instructions (Amersham).
molecule,measurement,setting,value
B1,effect of expressed BAD mutant on cellular survival / cell death,[1],"greatest effect on cellular survival, with a significant increase in cell death compared to the control; also recorded: enhanced apoptotic activity compared with the wild-type mammalian BAD"
same,band-shift (phosphorylation) of expressed BAD construct in response to L-epinephrine,[2]; HeLa cells,significantly reduced
same,reactivity with anti-phospho-Ser155 specific BAD antibody,[2]; HeLa cells treated with Forskolin,failure of the anti-phospho-Ser155 specific BAD antibody to react
same,growth factor (EGF)- and serum (FCS)-induced phosphorylation of expressed BAD mutant,"[2]; HeLa cells, anti-HA western blot",dramatically reduced
same,phosphorylation of expressed BAD mutant,"[2]; HeLa cells, anti-HA western blot, compared to single mutation of Ser112 or Ser136",dramatically reduced the phosphorylation of the murine BAD in HeLa cells
same,band-shift (phosphorylation) of expressed BAD construct in response to L-epinephrine,"[2]; HeLa cells, listed as HA-BAD S155A",limited response
